Measured values published in PMC6761149.

Biological target: Q8DLC1
Test: SAXS; ESRF BM29, 10 °C, 20 mM Tris/HCl pH 7.5, 500 mM NaCl, 20% (v/v) glycerol; dark holoprotein (NADPH, Pchlide) at 0.65 mg ml^-1; monomer content from I(0)
Conditions: other: SAXS

B1: light-dependent protochlorophyllide oxidoreductase of Thermosynechococcus elongatus BP-1 (TeLPOR) (protein)
chain: MSDQPRPTVIITGASSGVGLYATKALANRGWHVIMACRNLEKAEQAAKNLQIPPEAYTILHLDLSSLASVRGFVESFRALNRPLRALVCNAAVYYPLLKEPIYSVDGYEITVATNHLGHFLLINLLLEDLKNSPESDKRLVILGTVTANRKELGGKIPIPAPPDLGNLEGFEKGFKKPIAMINGKPFKSGKAYKDSKLCNMLTARELHRRFHESTGIVFNSLYPGCVADTPLFRHHFPLFQKLFPLFQKKITGGYVSQELAGERVAMVVADPEFRQSGVHWSWGNRQKEGRKAFVQELSAEASDEQKARRLWELSEKLVGLA
- monomer content from I(0), with NADPH and Pchlide: monomer content from I(0): 85.9%
